Experimental data as given in US20240199716A1 (ANTLIA BIOSCIENCE, published 2024).

What was measured:
[1] = biological target: human natriuretic polypeptide receptor hNPR1 (the membrane-bound guanylate cyclase receptor of BNP) (human) (UniProt P16066); test: cell-based or functional assay
[2] = biological target: T1, human natriuretic polypeptide receptor hNPR1 (the membrane-bound guanylate cyclase receptor of BNP) (human, UniProt P16066 33-1061); test: cell-based or functional assay
T1 sequence (looked up): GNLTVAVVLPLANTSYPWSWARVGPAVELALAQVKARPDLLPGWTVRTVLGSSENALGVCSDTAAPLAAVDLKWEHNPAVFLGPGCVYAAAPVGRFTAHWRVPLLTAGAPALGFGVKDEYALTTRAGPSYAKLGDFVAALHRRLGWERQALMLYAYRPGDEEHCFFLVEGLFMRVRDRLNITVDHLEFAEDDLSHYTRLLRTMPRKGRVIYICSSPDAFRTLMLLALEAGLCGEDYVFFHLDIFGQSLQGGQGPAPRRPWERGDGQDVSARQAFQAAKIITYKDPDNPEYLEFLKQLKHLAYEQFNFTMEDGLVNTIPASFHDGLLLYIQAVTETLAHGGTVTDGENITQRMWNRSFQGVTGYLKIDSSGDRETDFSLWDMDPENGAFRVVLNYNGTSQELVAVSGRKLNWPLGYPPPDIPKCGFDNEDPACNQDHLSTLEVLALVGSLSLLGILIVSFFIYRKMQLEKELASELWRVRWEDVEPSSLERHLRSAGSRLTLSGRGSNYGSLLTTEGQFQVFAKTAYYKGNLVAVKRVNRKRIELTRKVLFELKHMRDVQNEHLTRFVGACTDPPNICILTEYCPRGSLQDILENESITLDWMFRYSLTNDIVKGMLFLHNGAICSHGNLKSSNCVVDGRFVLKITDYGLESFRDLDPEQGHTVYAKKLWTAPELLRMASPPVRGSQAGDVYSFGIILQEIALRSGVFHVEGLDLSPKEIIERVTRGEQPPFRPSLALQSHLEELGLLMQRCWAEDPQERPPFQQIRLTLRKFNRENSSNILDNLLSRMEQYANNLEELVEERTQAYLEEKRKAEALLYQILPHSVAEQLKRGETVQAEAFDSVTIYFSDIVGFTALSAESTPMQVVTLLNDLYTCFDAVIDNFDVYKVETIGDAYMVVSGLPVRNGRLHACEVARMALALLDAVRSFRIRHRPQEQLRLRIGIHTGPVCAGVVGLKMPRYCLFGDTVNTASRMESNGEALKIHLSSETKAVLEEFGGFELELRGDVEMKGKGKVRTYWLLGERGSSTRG

Molecule: PAS400-hBNP(1-32) (ligand)
- Log dose ratio from hBNP(1-32) (NPR-1 cGMP assay, HEK293T/17) [1]: 1.58
- Maximum % control (cGMP HTRF, % response to BNP1-32 10 µM) [1]: 97.3%
- PEC50 (n) (cGMP HTRF, transiently transfected HEK293T/17 cells) [1]: 6.49
- Potency fold loss from hBNP(1-32) (NPR-1 cGMP assay, HEK293T/17) [1]: 38.2 fold
- fold reduction in potency relative to PAS200 (NPR-1 cGMP assay, HEK293T/17) [1]: 5.2 fold
- pEC50 [1]: 6.49

Molecule: PAS600-hBNP(1-32) (ligand)
- Log dose ratio from hBNP(1-32) (NPR-1 cGMP assay, HEK293T/17) [1]: 1.5
- Maximum % control (cGMP HTRF, % response to BNP1-32 10 µM) [1]: 97.4%
- PEC50 (n) (cGMP HTRF, transiently transfected HEK293T/17 cells) [1]: 6.57
- Potency fold loss from hBNP(1-32) (NPR-1 cGMP assay, HEK293T/17) [1]: 31.8 fold
- pEC50 [1]: 6.57

Molecule: PAS800-hBNP(1-32) (ligand)
- Log dose ratio from hBNP(1-32) (NPR-1 cGMP assay, HEK293T/17) [1]: 1.54
- Maximum % control (cGMP HTRF, % response to BNP1-32 10 µM) [1]: 89.1%
- PEC50 (n) (cGMP HTRF, transiently transfected HEK293T/17 cells) [1]: 6.53
- Potency fold loss from hBNP(1-32) (NPR-1 cGMP assay, HEK293T/17) [1]: 34.3 fold
- pEC50 [1]: 6.53

B1: Compound 5, hBNP(1-30)-(SEQ ID No:2)10-A (PAS attached to carboxy group of the C-terminal arginine 30) (ligand)
chain: SPKMVQGSGCFGRKMDRISSSSGLGCKVLRASPAAPAPASPAAPAPSAPAASPAAPAPASPAAPAPSAPAASPAAPAPASPAAPAPSAPAASPAAPAPASPAAPAPSAPAASPAAPAPASPAAPAPSAPAASPAAPAPASPAAPAPSAPAASPAAPAPASPAAPAPSAPAASPAAPAPASPAAPAPSAPAASPAAPAPASPAAPAPSAPAASPAAPAPASPAAPAPSAPAA
- log EC50 (cGMP, TR-FRET, % Activation, CHO-K1 cells transfected with hNPR1) [2]: -7.28
- log dose ratio from hBNP(1-32) (hNPR1 cGMP agonist assay) [2]: -1.95
- potency fold loss from hBNP(1-32) (hNPR1 cGMP agonist assay) [2]: 89 fold

B2: Compound 2, P-(SEQ ID No:2)10-A-hBNP(3-32) (PAS attached to the alpha amino group of the N-terminal lysine 3) (ligand)
chain: PASPAAPAPASPAAPAPSAPAASPAAPAPASPAAPAPSAPAASPAAPAPASPAAPAPSAPAASPAAPAPASPAAPAPSAPAASPAAPAPASPAAPAPSAPAASPAAPAPASPAAPAPSAPAASPAAPAPASPAAPAPSAPAASPAAPAPASPAAPAPSAPAASPAAPAPASPAAPAPSAPAASPAAPAPASPAAPAPSAPAAKMVQGSGCFGRKMDRISSSSGLGCKVLRRH
- log EC50 (cGMP, TR-FRET, % Activation, CHO-K1 cells transfected with hNPR1) [2]: -7.84
- log dose ratio from hBNP(1-32) (hNPR1 cGMP agonist assay) [2]: -1.39
- potency fold loss from hBNP(1-32) (hNPR1 cGMP agonist assay) [2]: 25 fold

B3: Compound 3, P-(SEQ ID No:2)10-A-hBNP(6-32) (PAS attached to N-terminus of glutamine 6) (ligand)
chain: PASPAAPAPASPAAPAPSAPAASPAAPAPASPAAPAPSAPAASPAAPAPASPAAPAPSAPAASPAAPAPASPAAPAPSAPAASPAAPAPASPAAPAPSAPAASPAAPAPASPAAPAPSAPAASPAAPAPASPAAPAPSAPAASPAAPAPASPAAPAPSAPAASPAAPAPASPAAPAPSAPAASPAAPAPASPAAPAPSAPAAQGSGCFGRKMDRISSSSGLGCKVLRRH
- log EC50 (cGMP, TR-FRET, % Activation, CHO-K1 cells transfected with hNPR1) [2]: -7.31
- log dose ratio from hBNP(1-32) (hNPR1 cGMP agonist assay) [2]: -1.92
- potency fold loss from hBNP(1-32) (hNPR1 cGMP agonist assay) [2]: 83 fold
